According to article doi:10.1101/2020.11.13.381350 (bioRxiv, 2020):
Several values for one entry are separate records, joined by “and”; a condition that tells them apart may be missing. Equal entries are not always repeated.

Target: the molecule itself
Assay: cross-linking

B1: 6xHis-WT-mVP40 (Marburg virus matrix protein VP40, wild type) (natural protein)
chain: MASSSNYNTYMQYLNPPPYADHGANQLIPADQLSNQQGITPNYVGDLNLDDQFKGNVCHAFTLEAIIDISAYNERTVKGVPAWLPLGIMSNFEYPLAHTVAALLTGSYTITQFTHNGQKFVRVNRLGTGIPAHPLRMLREGNQAFIQNMVIPRNFSTNQFTYNLTNLVLSVQKLPDDAWRPSKDKLIGNTMHPAVSIHPNLPPIVLPTVKKQAYRQHKNPNNGPLLAISGILHQLRVEKVPEKTSLFRISLPADMFSVKEGMMKKRGENSPVVYFQAPENFPLNGFNNRQVVLAYANPTLSAV
  stoichiometry N: 6 and 4
